We go through 12 molecules from patent US20140011734A1 (Sanofi, published 2014).

Sequences and labels used below:
B1: Cyclo[Leu-His-Asn-Leu-NH-(CH2)6-CO-Val-Glu-Arg-Met-Ala] (peptide)
peptide: cyclo(LHNL[Ahp]VERMA)
SMILES: CSCC[C@@H]1NC(=O)[C@H](CCCNC(=N)N)NC(=O)[C@H](CCC(=O)O)NC(=O)[C@H](C(C)C)NC(=O)CCCCCCNC(=O)[C@H](CC(C)C)NC(=O)[C@H](CC(N)=O)NC(=O)[C@H](Cc2c[nH]cn2)NC(=O)[C@H](CC(C)C)NC(=O)[C@H](C)NC1=O
B2: Cyclo[Leu-His-Asn-Leu-NH-(CH2)2-CO-Gly-Thr-Glu-Arg-Met-Ala] (peptide)
peptide: cyclo(LHNL[βAla]GTERMA)
SMILES: CSCC[C@@H]1NC(=O)[C@H](CCCNC(=N)N)NC(=O)[C@H](CCC(=O)O)NC(=O)[C@H]([C@@H](C)O)NC(=O)CNC(=O)CCNC(=O)[C@H](CC(C)C)NC(=O)[C@H](CC(N)=O)NC(=O)[C@H](Cc2c[nH]cn2)NC(=O)[C@H](CC(C)C)NC(=O)[C@H](C)NC1=O
B3: Cyclo[Leu-His-Asn-Leu-NH-(CH2)6-CO-Thr-Glu-Arg-Met-Ala] (peptide)
peptide: cyclo(LHNL[Ahp]TERMA)
modifications: also: made as TFA salt and as acetate salt
notes: Made as trifluoroacetic acid salt and also as acetic acid salt
B4: Cyclo[Leu-His-Asn-Leu-NH-X4-X3-X2-X1-CO-Thr-Glu-Arg-Met-Ala] of example 2 (peptide)
peptide: cyclo(LHNL[NHCH2(1,3-C6H4)CH2CO]TERMA)
SMILES: CSCC[C@@H]1NC(=O)[C@H](CCCNC(=N)N)NC(=O)[C@H](CCC(=O)O)NC(=O)[C@H]([C@@H](C)O)NC(=O)Cc2cccc(c2)CNC(=O)[C@H](CC(C)C)NC(=O)[C@H](CC(N)=O)NC(=O)[C@H](Cc2c[nH]cn2)NC(=O)[C@H](CC(C)C)NC(=O)[C@H](C)NC1=O
B5: Cyclo[Leu-His-Asn-Leu-NH-(CH2)6-CO-Thr-Glu-Arg-Amb-Ala] (peptide)
peptide: cyclo(LHNL[Ahp]TER[Amb]A)
SMILES: COCC[C@@H]1NC(=O)[C@H](CCCNC(=N)N)NC(=O)[C@H](CCC(=O)O)NC(=O)[C@H]([C@@H](C)O)NC(=O)CCCCCCNC(=O)[C@H](CC(C)C)NC(=O)[C@H](CC(N)=O)NC(=O)[C@H](Cc2c[nH]cn2)NC(=O)[C@H](CC(C)C)NC(=O)[C@H](C)NC1=O
B6: Cyclo[Leu-His-Asn-Leu-NH-(CH2)6-CO-Thr-Glu-Orn-Met-Ala] (peptide)
peptide: cyclo(LHNL[Ahp]TE[Orn]MA)
SMILES: CSCC[C@@H]1NC(=O)[C@H](CCCN)NC(=O)[C@H](CCC(=O)O)NC(=O)[C@H]([C@@H](C)O)NC(=O)CCCCCCNC(=O)[C@H](CC(C)C)NC(=O)[C@H](CC(N)=O)NC(=O)[C@H](Cc2c[nH]cn2)NC(=O)[C@H](CC(C)C)NC(=O)[C@H](C)NC1=O
B7: Cyclo[Leu-His-Asn-Leu-NH-(CH2)6-CO-Thr-Glu-Arg-Nle-Ala] (peptide)
peptide: cyclo(LHNL[Ahp]TER[Nle]A)
SMILES: CCCC[C@@H]1NC(=O)[C@H](CCCNC(=N)N)NC(=O)[C@H](CCC(=O)O)NC(=O)[C@H]([C@@H](C)O)NC(=O)CCCCCCNC(=O)[C@H](CC(C)C)NC(=O)[C@H](CC(N)=O)NC(=O)[C@H](Cc2c[nH]cn2)NC(=O)[C@H](CC(C)C)NC(=O)[C@H](C)NC1=O
B8: Cyclo[Leu-His-Asn-Leu-NH-(CH2)6-CO-Thr-Glu-Arg-Met-Dpr] (peptide)
peptide: cyclo(LHNL[Ahp]TERM[Dap])
SMILES: CSCC[C@@H]1NC(=O)[C@H](CCCNC(=N)N)NC(=O)[C@H](CCC(=O)O)NC(=O)[C@H]([C@@H](C)O)NC(=O)CCCCCCNC(=O)[C@H](CC(C)C)NC(=O)[C@H](CC(N)=O)NC(=O)[C@H](Cc2c[nH]cn2)NC(=O)[C@H](CC(C)C)NC(=O)[C@H](CN)NC1=O
B9: Cyclo[Leu-His-Asn-Leu-NH-(CH2)7-CO-Thr-Glu-Arg-Met-Ala] (peptide)
peptide: cyclo(LHNL[Aoc]TERMA)
SMILES: CSCC[C@@H]1NC(=O)[C@H](CCCNC(=N)N)NC(=O)[C@H](CCC(=O)O)NC(=O)[C@H]([C@@H](C)O)NC(=O)CCCCCCCNC(=O)[C@H](CC(C)C)NC(=O)[C@H](CC(N)=O)NC(=O)[C@H](Cc2c[nH]cn2)NC(=O)[C@H](CC(C)C)NC(=O)[C@H](C)NC1=O
B10: Cyclo[Leu-His-Asn-Leu-NH-(CH2)6-CO-Thr-Glu-Arg-Amp-Ala] (peptide)
peptide: cyclo(LHNL[Ahp]TER[Amp]A)
SMILES: COC[C@@H]1NC(=O)[C@H](CCCNC(=N)N)NC(=O)[C@H](CCC(=O)O)NC(=O)[C@H]([C@@H](C)O)NC(=O)CCCCCCNC(=O)[C@H](CC(C)C)NC(=O)[C@H](CC(N)=O)NC(=O)[C@H](Cc2c[nH]cn2)NC(=O)[C@H](CC(C)C)NC(=O)[C@H](C)NC1=O
B11: Cyclo[Leu-His-Asn-Leu-NH-(CH2)6-CO-Thr-Glu-Arg-Abu-Ala] (peptide)
peptide: cyclo(LHNL[Ahp]TER[Abu]A)
SMILES: CC[C@@H]1NC(=O)[C@H](CCCNC(=N)N)NC(=O)[C@H](CCC(=O)O)NC(=O)[C@H]([C@@H](C)O)NC(=O)CCCCCCNC(=O)[C@H](CC(C)C)NC(=O)[C@H](CC(N)=O)NC(=O)[C@H](Cc2c[nH]cn2)NC(=O)[C@H](CC(C)C)NC(=O)[C@H](C)NC1=O

Starred links: 1 amine or outer side, 2 acyl side, 3 side chain; linkers in the order of their positions; H or OH if unused. Non-standard residues stand in square brackets, D forms with d. Amp = L-2-amino-3-methoxypropionic acid, COC[C@H](N[*:1])C(=O)[*:2]; Amb = L-2-amino-4-methoxybutyric acid, COCC[C@H](N[*:1])C(=O)[*:2]; NHCH2(1,3-C6H4)CH2CO = O=C(Cc1cccc(CN[*:1])c1)[*:2]; tBuAla = CC(C)(C)C[C@H](N)C(=O)O; Nle = CCCC[C@H](N)C(=O)O; Orn = NCCC[C@H](N)C(=O)O; Abu = CC[C@H](N)C(=O)O; Dap = NC[C@H](N)C(=O)O; Aoc = NCCCCCCCC(=O)O; Ahp = NCCCCCCC(=O)O; βAla = NCCC(=O)O

T1 sequence (P07359 17-652, chain 1 of 4): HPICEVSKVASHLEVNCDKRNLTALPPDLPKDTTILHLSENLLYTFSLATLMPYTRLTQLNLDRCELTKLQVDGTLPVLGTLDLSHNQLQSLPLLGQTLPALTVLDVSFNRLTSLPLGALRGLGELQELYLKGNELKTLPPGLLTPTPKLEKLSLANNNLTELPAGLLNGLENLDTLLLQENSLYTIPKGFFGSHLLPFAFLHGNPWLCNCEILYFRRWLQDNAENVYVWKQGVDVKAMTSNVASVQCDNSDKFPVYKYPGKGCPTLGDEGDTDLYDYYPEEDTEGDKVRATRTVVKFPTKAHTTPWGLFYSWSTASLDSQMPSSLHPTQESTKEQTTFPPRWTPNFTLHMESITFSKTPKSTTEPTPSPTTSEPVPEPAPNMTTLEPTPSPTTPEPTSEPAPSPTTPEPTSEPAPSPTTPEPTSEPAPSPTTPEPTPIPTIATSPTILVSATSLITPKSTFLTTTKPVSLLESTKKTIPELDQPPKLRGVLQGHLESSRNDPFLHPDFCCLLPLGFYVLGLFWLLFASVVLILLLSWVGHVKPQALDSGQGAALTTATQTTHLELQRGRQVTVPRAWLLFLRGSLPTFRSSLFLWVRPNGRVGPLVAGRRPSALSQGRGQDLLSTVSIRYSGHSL
T1 sequence (P13224 26-206, chain 2 of 4): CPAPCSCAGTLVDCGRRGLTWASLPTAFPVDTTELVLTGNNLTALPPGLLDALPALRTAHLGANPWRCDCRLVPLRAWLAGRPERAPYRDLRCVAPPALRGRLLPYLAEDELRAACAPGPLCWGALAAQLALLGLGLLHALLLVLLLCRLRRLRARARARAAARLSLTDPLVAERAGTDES
T1 sequence (P14770 17-177, chain 3 of 4): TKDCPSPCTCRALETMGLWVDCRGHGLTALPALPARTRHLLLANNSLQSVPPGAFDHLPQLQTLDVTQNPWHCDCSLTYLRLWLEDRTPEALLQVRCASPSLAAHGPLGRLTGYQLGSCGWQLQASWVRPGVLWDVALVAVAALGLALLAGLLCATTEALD
T1 sequence (P40197 17-560, chain 4 of 4): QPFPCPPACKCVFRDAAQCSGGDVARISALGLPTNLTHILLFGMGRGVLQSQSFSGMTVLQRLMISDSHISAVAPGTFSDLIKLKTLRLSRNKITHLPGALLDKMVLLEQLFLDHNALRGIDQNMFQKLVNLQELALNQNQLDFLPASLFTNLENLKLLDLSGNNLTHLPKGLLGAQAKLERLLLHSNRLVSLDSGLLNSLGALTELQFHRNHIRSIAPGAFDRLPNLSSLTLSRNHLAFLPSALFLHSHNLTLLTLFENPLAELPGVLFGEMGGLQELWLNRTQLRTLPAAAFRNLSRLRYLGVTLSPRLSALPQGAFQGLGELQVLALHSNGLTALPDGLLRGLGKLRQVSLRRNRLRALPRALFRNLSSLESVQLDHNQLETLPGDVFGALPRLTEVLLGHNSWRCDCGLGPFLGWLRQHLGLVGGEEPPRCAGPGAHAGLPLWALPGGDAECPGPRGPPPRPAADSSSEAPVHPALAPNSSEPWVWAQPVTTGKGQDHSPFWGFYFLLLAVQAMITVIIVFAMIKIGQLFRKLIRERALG

The first assay concerns the target T1, blood platelet receptor glycoprotein Ib-IX-V complex (GPIb) (human, UniProt P07359 17-652; P13224 26-206; P14770 17-177; P40197 17-560).
T1 construct: whole, on cells; also called GPIb complex; GPIb receptor
The experiment in a line: inhibition of static adhesion of human platelets to coated vWF-A1; grade A = showed activity at 10 µM. As for the experimental part: Platelet rich plasma was carefully transferred again to fresh containers, PGE1 (0.5 μg/ml, Sigma) was added and the suspension was allowed to rest for 5 min. This was followed by another centrifugation step for 15 min at 360 g. The supernatant was discarded and the cell pellets were carefully resuspended in tyrode buffer (NaCl, 137 mM (Sigma S-3014); KCl, 2.7 mM (Sigma P-9541); NaHCO₃,12 mM (Riedel deHaen 31437); NaH₂PO₄×2H₂O, 0.36 mM (Merck 6345); MgCl₂×6 H₂O, 1 mM (Sigma M-2670); Hepes, 10 mM (Sigma H-1016); glucose, 5.6 mM (Merck 8342); BSA, 0.1% (Sigma A7906)), and PGE1 (0.25 μg/ml) was added. After 5 min of resting the suspension was spun down for 15 min at 300 g. The supernatant was discarded and the pellets were carefully resuspended in TBS buffer (Tris-HCl, 50 mM (Fluka 93371); NaCl, 120 mM (Sigma S-3014); KCl, 2.7 mM (Sigma P-9541); CaCl₂, 0.05 mM (Sigma C-3306); MgCl₂×6 H₂O, 2 mM (Sigma M-2670); BSA, 0.1% (Sigma A7906); pH 7.4). […]
96 well plates (Greiner hb, black, clear bottom, F, 655097) were coated with human recombinant vWF-A1 domain (1.5 μg/well, AA 475-706, expressed in E. coli) in Tris buffer (pH 7.4; Tris-HCl, 25 mM; NaCl, 150 mM) and incubated for 1 h at room temperature. […] Measurement of fluorescence per well was performed in a SpectraMax M5 reader (Molecular Devices). From the raw data % inhibition and IC₅₀ values were calculated.
Regarding B1, the binding result is on record as “binds”.
Turning to B2, the binding result is on record as “binds”.

The next assay deals with T1, blood platelet receptor glycoprotein …. The experiment in a line: cell-based or functional assay.
In the case of B3, the “IC50 (average value), ristocetin-induced agglutination of human whole blood, impedance aggregometry” value was less than 1000 nM.
The same measure, in the same setting: the result for B4 reads less than 1000 nM.

The target is the same in a further assay. In words: inhibition of static adhesion of human platelets to coated vWF-A1; grade C = IC50 lower than 1 µM. The method, then:
Platelet rich plasma was carefully transferred again to fresh containers, PGE1 (0.5 μg/ml, Sigma) was added and the suspension was allowed to rest for 5 min. This was followed by another centrifugation step for 15 min at 360 g. The supernatant was discarded and the cell pellets were carefully resuspended in tyrode buffer (NaCl, 137 mM (Sigma S-3014); KCl, 2.7 mM (Sigma P-9541); NaHCO₃,12 mM (Riedel deHaen 31437); NaH₂PO₄×2H₂O, 0.36 mM (Merck 6345); MgCl₂×6 H₂O, 1 mM (Sigma M-2670); Hepes, 10 mM (Sigma H-1016); glucose, 5.6 mM (Merck 8342); BSA, 0.1% (Sigma A7906)), and PGE1 (0.25 μg/ml) was added. After 5 min of resting the suspension was spun down for 15 min at 300 g. The supernatant was discarded and the pellets were carefully resuspended in TBS buffer (Tris-HCl, 50 mM (Fluka 93371); NaCl, 120 mM (Sigma S-3014); KCl, 2.7 mM (Sigma P-9541); CaCl₂, 0.05 mM (Sigma C-3306); MgCl₂×6 H₂O, 2 mM (Sigma M-2670); BSA, 0.1% (Sigma A7906); pH 7.4). The platelet count was adjusted to 2×10⁵ cells/μl, and the suspensions from individual donors were pooled at this stage. The platelets were allowed to rest for 30 min at room temperature before calcein AM (2.5 μM per 2×10⁵ cells/pi (Molecular Probes C-3099)) was added. This was followed by 15 min incubation in the dark. Cells were diluted to 5×10⁴ cells/μl and ReoPro (3 μg/ml (Centocor B. V., Leiden, N L)) was added, followed by a 10 min incubation period in the dark before adding the platelets to the assay plates.
96 well plates (Greiner hb, black, clear bottom, F, 655097) were coated with human recombinant vWF-A1 domain (1.5 μg/well, AA 475-706, expressed in E. coli) in Tris buffer (pH 7.4; Tris-HCl, 25 mM; NaCl, 150 mM) and incubated for 1 h at room temperature. After washing the wells 3× with TBS, blocking buffer (TBS with 5% BSA) was added followed by an incubation for 1 h. The wells were washed again 3× with TBS before 200 μl TBS were added to each well, preventing them from drying out. TBS was flicked out and serial dilutions of the test compound were added. The washed and calcein AM labeled thrombocytes were added to the wells (2.5×10⁶ cells/well). Following an adhesion period of 1.5 h in the dark the wells were washed 3× with TBS. Measurement of fluorescence per well was performed in a SpectraMax M5 reader (Molecular Devices). From the raw data % inhibition and IC₅₀ values were calculated.
For orientation: IC50 means the midpoint of a concentration-inhibition curve. Read a low IC50 as higher potency. As for B5, the half-maximal inhibitory concentration (IC50) is less than 1000 nM.
Still for that read-out and setting: the result for B6 reads less than 1000 nM; that for B7, less than 1000 nM.
With B8, the IC50 is less than 1000 nM.
In the case of B3, the IC50 is less than 1000 nM.
With B9, the IC50 is less than 1000 nM.
B4 had an IC50 of less than 1000 nM.
The same measure, in the same setting: then B10, with less than 1000 nM.
In turn, cyclo([tBuAla]HNL[Ahp]TERMA) [Cyclo[Npg-His-Asn-Leu-NH-(CH2)6-CO-Thr-Glu-Arg-Met-Ala]] came in with an IC50 of less than 1000 nM.
On the same count and under the same terms, the result for B11 reads less than 1000 nM.
